The Immune Epitope Database (IEDB)

biological target: HLA-A*02:02; experiment: IEDB peptide-MHC binding, purified MHC/competitive/radioactivity; ≥ and ≤ were set here for values at or beyond the usual limits of such assays; conditions: source organism: Vaccinia virus WR

Row | Sequence | IC50
1 | SILSLETVKM | 203 nM
2 | SINITPDDGL | 413 nM
3 | SINNQLMYDI | 492 nM
4 | SLDQTHIKTI | 1430 nM
5 | SLGKSPLPSL | 4.1 nM
6 | SLIYYQNEVT | 77 nM
7 | SLTQVKELGI | 9.8 nM
8 | SLVKESMASL | 994 nM
9 | SLVSKHWELT | 409 nM
10 | SLVYGIRCV | 2940 nM
11 | SMMVILPDKI | 28 nM
12 | SMSQELAEL | 4 nM
13 | SMYVIPDEL | 5 nM
14 | TILATLNTL | 238 nM
15 | TLFGRGVIDT | 199 nM
16 | TLVPVLEKKV | 112 nM
17 | VIPDELIDV | 609 nM
18 | VLALYSPPLI | 16 nM

Row | Sequence | IC50
19 | VLEKKVCAIT | 590 nM
20 | VLLPFYETL | 4060 nM
21 | VLTSVDIETA | 62 nM
22 | VMHINSPFKV | 60 nM
23 | VMPEKRNVV | 1100 nM
24 | VQFSILNNPV | 131 nM
25 | VTYNIKPVIV | 4920 nM
26 | WIKDIMTST | 193 nM
27 | WLKDSAIMVA | 15 nM
28 | YIEDELRRAA | 628 nM
29 | YISRDELWA | 333 nM
30 | YLGHSAGFT | 874 nM
31 | YLGHSAGFTA | 16 nM
32 | YLLGDSDSVA | 2 nM
33 | YLLMHLVSL | 0.18 nM
34 | YLPEVISTIA | 11 nM
35 | YLSDSDNIKI | 16 nM

biological target: HLA-A*02:03; experiment: as above; conditions: source organism: Hepacivirus hominis

Row | Sequence | IC50
36 | RLHGLEAFSL | 602 nM
37 | RLIVYPDLGV | 15 nM
38 | RLLDLSSWFT | 316 nM
39 | RLVPGATYAL | 834 nM
40 | TLLGCWSFVL | 864 nM
41 | VLAGYGAGI | 18 nM
42 | VLQAGITRV | 12 nM
43 | VLWTVFHGA | 836 nM
44 | VMWKCLIRL | 823 nM
45 | WMMLLIAQA | 47 nM

same assay, conditions: source organism: Influenza A virus

Row | Sequence | IC50
46 | RLIQNSITI | 28 nM
47 | YLIRALTL | 145 nM

same assay, conditions: source organism: SARS-CoV1

Row | Sequence | IC50
48 | RILGAGCFV | 53 nM
49 | SLVTSFLLM | 49 nM
50 | SQMETDFLEL | 597 nM
51 | TLLLWISVKV | 1060 nM
52 | VLTHGLASV | 0.3 nM
53 | VMFNGVTFST | 75 nM
54 | YALCTLLHL | 768 nM
55 | YLLGLSAIM | 37 nM

same assay, conditions: source organism: Vaccinia virus WR

Row | Sequence | IC50
56 | NLLEQLIENI | 1440 nM
57 | PTILATLNTL | 130 nM
58 | PTWLGAAITL | 1010 nM
59 | PVLEKKVCAI | 1190 nM
60 | QIGGEAIFLI | 0.2 nM
61 | QLLKILDNL | 319 nM
62 | QLVKDESIQL | 130 nM
63 | QVLQQNNSFI | 3180 nM
64 | RALKAYFTA | 204 nM
65 | RIKSVLDII | 18 nM
66 | RLFTRCAVI | 249 nM
67 | RMPTDMLKL | 106 nM
68 | SALMTLDDL | 707 nM
69 | SALMTLDDLA | 2320 nM
70 | SIKMIYDLNA | 257 nM
71 | SILSLETVKM | 455 nM
72 | SINITPDDGL | 1230 nM
73 | SINNQLMYDI | 482 nM
74 | SLDQTHIKTI | 15 nM
75 | SLGKSPLPSL | 47 nM
76 | SLIYYQNEVT | 606 nM
77 | SLTQVKELGI | 75 nM
78 | SLVKESMASL | 7.8 nM
79 | SLVSKHWELT | 35 nM
80 | SLVYGIRCV | 3.8 nM

Row | Sequence | IC50
81 | SMMVILPDKI | 19 nM
82 | SMSQELAEL | 7.7 nM
83 | SMYVIPDEL | 13 nM
84 | TILATLNTL | 34 nM
85 | TLFGRGVIDT | 96 nM
86 | TLVPVLEKKV | 100 nM
87 | VIPDELIDV | 44 nM
88 | VLALYSPPLI | 101 nM
89 | VLEKKVCAIT | 1240 nM
90 | VLLPFYETL | 267 nM
91 | VLTSVDIETA | 421 nM
92 | VMHINSPFKV | 2.5 nM
93 | VMPEKRNVV | 23 nM
94 | VQFSILNNPV | 369 nM
95 | VTYNIKPVIV | 116 nM
96 | WIKDIMTST | 12 nM
97 | WLKDSAIMVA | 1320 nM
98 | YIEDELRRAA | 166 nM
99 | YISRDELWA | 242 nM
100 | YLGHSAGFT | 225 nM
101 | YLGHSAGFTA | 86 nM
102 | YLLGDSDSVA | 23 nM
103 | YLLMHLVSL | 1.4 nM
104 | YLPEVISTIA | 0.96 nM
105 | YLSDSDNIKI | 109 nM

biological target: HLA-A*02:06; experiment: as above; conditions: source organism: Hepacivirus hominis

Row | Sequence | IC50
106 | RLHGLEAFSL | 649 nM
107 | RLIVYPDLGV | 129 nM
108 | RLLDLSSWFT | 82 nM
109 | RLVPGATYAL | 834 nM
110 | TLLGCWSFVL | 250 nM
111 | VLAGYGAGI | 2500 nM
112 | VLQAGITRV | 393 nM
113 | VLWTVFHGA | 189 nM
114 | VMWKCLIRL | 947 nM
115 | WMMLLIAQA | 712 nM

same assay, conditions: source organism: Influenza A virus

Row | Sequence | IC50
116 | RLIQNSITI | 1330 nM
117 | YLIRALTL | 2520 nM

same assay, conditions: source organism: SARS-CoV1

Row | Sequence | IC50
118 | RILGAGCFV | 38 nM
119 | SLVTSFLLM | 257 nM
120 | SQMETDFLEL | 21 nM
121 | TLLLWISVKV | 875 nM
122 | VLTHGLASV | 1.4 nM
123 | VMFNGVTFST | 131 nM
124 | YALCTLLHL | 1.5 nM
125 | YLLGLSAIM | 3.2 nM

same assay, conditions: source organism: Vaccinia virus WR

Row | Sequence | IC50
126 | NLLEQLIENI | 396 nM
127 | PTILATLNTL | 771 nM
128 | PTWLGAAITL | 1770 nM
129 | PVLEKKVCAI | 1040 nM
130 | QIGGEAIFLI | 15 nM
131 | QLLKILDNL | 135 nM
132 | QLVKDESIQL | 1810 nM
133 | QVLQQNNSFI | 2320 nM
134 | RALKAYFTA | 14 nM
135 | RIKSVLDII | 2080 nM
136 | RLFTRCAVI | 2820 nM
137 | RMPTDMLKL | 678 nM
138 | SALMTLDDL | 100 nM
139 | SALMTLDDLA | 193 nM
140 | SIKMIYDLNA | 1030 nM
141 | SILSLETVKM | 806 nM
142 | SINITPDDGL | 0.34 nM
143 | SINNQLMYDI | 4840 nM
144 | SLDQTHIKTI | 2460 nM
145 | SLGKSPLPSL | 1430 nM
146 | SLIYYQNEVT | 4310 nM
147 | SLTQVKELGI | 157 nM
148 | SLVKESMASL | 1430 nM
149 | SLVSKHWELT | 2680 nM
150 | SLVYGIRCV | 168 nM

Row | Sequence | IC50
151 | SMMVILPDKI | 5.7 nM
152 | SMSQELAEL | 186 nM
153 | SMYVIPDEL | 2820 nM
154 | TILATLNTL | 26 nM
155 | TLFGRGVIDT | 3310 nM
156 | TLVPVLEKKV | 498 nM
157 | VIPDELIDV | 556 nM
158 | VLALYSPPLI | 868 nM
159 | VLEKKVCAIT | 1680 nM
160 | VLLPFYETL | 218 nM
161 | VLTSVDIETA | 1410 nM
162 | VMHINSPFKV | 393 nM
163 | VMPEKRNVV | 3290 nM
164 | VQFSILNNPV | 186 nM
165 | VTYNIKPVIV | 358 nM
166 | WIKDIMTST | 136 nM
167 | WLKDSAIMVA | 4840 nM
168 | YIEDELRRAA | 204 nM
169 | YISRDELWA | 1200 nM
170 | YLGHSAGFT | 4540 nM
171 | YLGHSAGFTA | 144 nM
172 | YLLGDSDSVA | 135 nM
173 | YLLMHLVSL | 0.25 nM
174 | YLPEVISTIA | 18 nM
175 | YLSDSDNIKI | 906 nM
